This is an account of results in the Human Domainome abundance scans (Beltran et al. 2025).

The labels stand for the following.
B1: Transitional endoplasmic reticulum ATPase, residues 26 to 106; numbered along this chain, P55072 (parent)
chain: LIVDEAINEDNSVVSLSQPKMDELQLFRGDTVLLKGKKRREAVCIVLSDDTCSDEKIRMNRVVRNNLRVRLGDVISIQPCP

± gives the uncertainty stated by the source.

In this data set the parent is B1. Briefly: abundance fitness (aPCA) (normalised: wild type 0, dead -1); higher = more abundant; growth selection in yeast, the domain comes from the species named. The conditions noted are these: Homo sapiens.
E23T: the abundance fitness is -0.041 ± 0.083.

For E23W, the abundance fitness is -0.338 ± 0.12.

E23V: the abundance fitness was -0.142 ± 0.087.

On to E23D, for which the abundance fitness is -0.23 ± 0.12.

E23I: the abundance fitness is -0.126 ± 0.18.

For the variant E23F, the abundance fitness was -0.263 ± 0.21.

In the case of E23S, the abundance fitness is -0.062 ± 0.059.

As to E23Q, the abundance fitness was -0.104 ± 0.11.

E23C: the abundance fitness was -0.496 ± 0.26.

With E23A, the abundance fitness was -0.103 ± 0.06.

With E23N, the abundance fitness is -0.112 ± 0.31.

Consider E23H, for which the abundance fitness was -0.2 ± 0.21.

For E23M, the abundance fitness is 0.085 ± 0.3.

On to E23R, for which the abundance fitness was -0.09 ± 0.064.

On to E23G, for which the abundance fitness is -0.079 ± 0.061.

On to E23P, for which the abundance fitness was -1.16 ± 0.32.

For E23Y, the abundance fitness is -0.164 ± 0.27.

Consider E23L, for which the abundance fitness is -0.148 ± 0.089.

Consider E23K, for which the abundance fitness is -0.187 ± 0.11.

On to L16I, for which the abundance fitness is -0.005 ± 0.075.

For the variant L16T, the abundance fitness is -0.793 ± 0.14.

On to L16S, for which the abundance fitness was -0.595 ± 0.072.

Turning to L16F, the abundance fitness was -0.267 ± 0.085.

L16E: the abundance fitness is -0.762 ± 0.15.

Regarding L16N, the abundance fitness is -0.766 ± 0.29.

On to L16G, for which the abundance fitness is -0.895 ± 0.063.

Regarding L16C, the abundance fitness is -0.083 ± 0.087.

Turning to L16V, the abundance fitness is -0.139 ± 0.043.

Turning to L16A, the abundance fitness is -0.65 ± 0.062.

Consider L16Q, for which the abundance fitness was -0.584 ± 0.1.

In the case of L16K, the abundance fitness is -0.783 ± 0.15.

On to L16P, for which the abundance fitness was -0.788 ± 0.13.

Take L16W: the abundance fitness was -0.912 ± 0.14.

On to S17G, for which the abundance fitness is -0.153 ± 0.043.

In the case of S17L, the abundance fitness was -0.854 ± 0.11.

In the case of S17V, the abundance fitness is -1.03 ± 0.26.

Regarding S17F, the abundance fitness is -0.698 ± 0.18.

For S17Y, the abundance fitness is -0.806 ± 0.21.

As for S17D, the abundance fitness was -1.01 ± 0.34.

As for S17R, the abundance fitness is -0.431 ± 0.043.

Consider S17I, for which the abundance fitness was -0.79 ± 0.17.

In the case of S17C, the abundance fitness was -0.381 ± 0.11.

Take S17K: the abundance fitness is -0.361 ± 0.097.

In the case of S17M, the abundance fitness was -0.995 ± 0.15.

With S17A, the abundance fitness was -0.174 ± 0.052.

In the case of S17P, the abundance fitness was -0.365 ± 0.069.

Turning to S17H, the abundance fitness was -0.396 ± 0.38.

Regarding S17Q, the abundance fitness is -0.671 ± 0.1.

As to V13I, the abundance fitness was 0.053 ± 0.11.

Consider V13Y, for which the abundance fitness was determined as 0.044 ± 0.084.

In the case of V13C, the abundance fitness was 0.056 ± 0.11.

Consider V13G, for which the abundance fitness is -0.06 ± 0.03.

With V13W, the abundance fitness is -0.006 ± 0.053.

V13Q: the abundance fitness was -0.112 ± 0.065.

Consider V13M, for which the abundance fitness was -0.143 ± 0.083.

Regarding V13E, the abundance fitness is -0.127 ± 0.066.

V13P: the abundance fitness was -0.457 ± 0.088.

Regarding V13N, the abundance fitness was -0.236 ± 0.12.

Consider V13K, for which the abundance fitness was -0.183 ± 0.064.

Consider V13H, for which the abundance fitness stood at 0.053 ± 0.12.

Take V13D: the abundance fitness was -0.103 ± 0.079.

For V13L, the abundance fitness was -0.095 ± 0.047.

For V13A, the abundance fitness is -0.125 ± 0.043.

In the case of V13R, the abundance fitness was -0.113 ± 0.046.

As to S15I, the abundance fitness is 0.002 ± 0.077.

As to S15G, the abundance fitness is 0.034 ± 0.032.

Turning to S15Q, the abundance fitness worked out at 0.082 ± 0.053.

Consider S15Y, for which the abundance fitness was determined as 0 ± 0.095.

With S15T, the abundance fitness was 0.004 ± 0.067.

Regarding S15F, the abundance fitness was 0.087 ± 0.11.

Turning to S15R, the abundance fitness was -0.001 ± 0.038.

In the case of S15E, the abundance fitness amounted to 0.008 ± 0.076.

Turning to S15V, the abundance fitness came out at 0.07 ± 0.037.

As to S15W, the abundance fitness is -0.091 ± 0.092.

S15D: the abundance fitness was -0.674 ± 0.1.

Regarding S15H, the abundance fitness is -0.039 ± 0.09.

Take S15N: the abundance fitness came to 0.08 ± 0.1.

Consider S15P, for which the abundance fitness is -0.591 ± 0.097.

For the variant S15C, the abundance fitness was -0.006 ± 0.066.

With S15M, the abundance fitness is -0.058 ± 0.079.

Turning to L26S, the abundance fitness was -0.838 ± 0.11.

L26R: the abundance fitness was -0.939 ± 0.088.

Consider L26I, for which the abundance fitness is -0.078 ± 0.13.

For the variant L26P, the abundance fitness is -0.859 ± 0.18.

Take L26C: the abundance fitness is -0.346 ± 0.1.

With L26Q, the abundance fitness is -0.763 ± 0.13.

As to L26F, the abundance fitness was -0.285 ± 0.23.

L26V: the abundance fitness was -0.027 ± 0.057.

As to L26E, the abundance fitness was -1.02 ± 0.24.

L26D: the abundance fitness was -0.768 ± 0.26.

On to L26T, for which the abundance fitness was -0.462 ± 0.12.

Consider L26M, for which the abundance fitness is -0.047 ± 0.092.

Take L26A: the abundance fitness was -0.36 ± 0.063.

For L26W, the abundance fitness is -0.447 ± 0.054.

Take L26H: the abundance fitness is -0.609 ± 0.3.

As for N11F, the abundance fitness is -0.208 ± 0.18.

For N11Y, the abundance fitness is -0.079 ± 0.12.

Take N11E: the abundance fitness amounted to 0.031 ± 0.069.

For N11W, the abundance fitness is -0.26 ± 0.069.

In the case of N11I, the abundance fitness was -0.024 ± 0.038.

With N11S, the abundance fitness came to 0.039 ± 0.051.

Consider N11P, for which the abundance fitness was -0.011 ± 0.071.

As to N11V, the abundance fitness is -0.067 ± 0.045.

On to N11A, for which the abundance fitness was -0.105 ± 0.048.

Take N11R: the abundance fitness is -0.042 ± 0.038.

On to N11G, for which the abundance fitness was -0.067 ± 0.04.

Regarding N11K, the abundance fitness was -0.084 ± 0.12.

With N11M, the abundance fitness was -0.029 ± 0.072.

N11C: the abundance fitness was -0.091 ± 0.059.

For N11H, the abundance fitness stood at 0.103 ± 0.089.

N11T: the abundance fitness was -0.028 ± 0.066.

As for N11L, the abundance fitness is -0.007 ± 0.053.

As for S12N, the abundance fitness was -0.086 ± 0.083.

Turning to S12F, the abundance fitness was -0.036 ± 0.095.

Take S12M: the abundance fitness amounted to 0.088 ± 0.093.

On to S12R, for which the abundance fitness is -0.038 ± 0.04.

For the variant S12E, the abundance fitness turned out to be 0.039 ± 0.062.

With S12L, the abundance fitness was -0.019 ± 0.053.

S12T: the abundance fitness turned out to be 0.082 ± 0.082.

In the case of S12D, the abundance fitness stood at 0.019 ± 0.066.

Take S12Y: the abundance fitness was -0.119 ± 0.099.

For S12P, the abundance fitness was -0.126 ± 0.065.

As for S12I, the abundance fitness is -0.166 ± 0.11.

S12V: the abundance fitness is -0.067 ± 0.043.

Regarding S12A, the abundance fitness stood at 0.035 ± 0.048.

As for S12K, the abundance fitness was -0.035 ± 0.065.

As to S12Q, the abundance fitness amounted to 0.093 ± 0.068.

Turning to S12G, the abundance fitness is 0.029 ± 0.045.

As to S12C, the abundance fitness was -0.056 ± 0.07.

Take K20R: the abundance fitness was -0.019 ± 0.073.

For K20C, the abundance fitness is -0.096 ± 0.11.

As to K20V, the abundance fitness is 0.004 ± 0.046.

Take K20D: the abundance fitness is -0.39 ± 0.22.

On to K20Q, for which the abundance fitness was -0.014 ± 0.11.

Turning to K20A, the abundance fitness is -0.005 ± 0.062.

With K20S, the abundance fitness was -0.162 ± 0.056.

For the variant K20W, the abundance fitness was -0.391 ± 0.14.

In the case of K20I, the abundance fitness was -0.008 ± 0.058.

Consider K20M, for which the abundance fitness is 0.04 ± 0.074.

Consider K20N, for which the abundance fitness was -0.093 ± 0.1.

Turning to K20F, the abundance fitness is -0.233 ± 0.09.

As for K20T, the abundance fitness was -0.08 ± 0.071.

On to K20L, for which the abundance fitness was 0.01 ± 0.051.

With K20P, the abundance fitness was -1.19 ± 0.36.

As to K20E, the abundance fitness is -0.705 ± 0.12.

For K20H, the abundance fitness was -0.389 ± 0.12.

As to V14D, the abundance fitness is -0.704 ± 0.12.

V14R: the abundance fitness was -0.884 ± 0.083.

Take V14F: the abundance fitness was -1.06 ± 0.25.

V14W: the abundance fitness was -0.816 ± 0.13.

For the variant V14T, the abundance fitness is -0.743 ± 0.11.

For V14P, the abundance fitness was -0.977 ± 0.19.

As for V14C, the abundance fitness was -0.11 ± 0.069.

As to V14L, the abundance fitness is -0.763 ± 0.073.

Turning to V14A, the abundance fitness is -0.341 ± 0.048.

As for V14K, the abundance fitness was -0.856 ± 0.32.

In the case of V14Y, the abundance fitness was -0.803 ± 0.23.

For the variant V14S, the abundance fitness was -0.801 ± 0.068.

Consider V14I, for which the abundance fitness came out at 0.042 ± 0.084.

Turning to V14G, the abundance fitness was -0.758 ± 0.054.

V14Q: the abundance fitness is -1.02 ± 0.26.

V14E: the abundance fitness was -0.945 ± 0.31.

As for V14H, the abundance fitness is -0.956 ± 0.2.

As to N8W, the abundance fitness is -0.13 ± 0.055.

Regarding N8K, the abundance fitness was -0.011 ± 0.07.

For the variant N8C, the abundance fitness was -0.015 ± 0.058.

With N8G, the abundance fitness turned out to be 0.022 ± 0.037.
